From the DeepSol protein solubility set

Assay: soluble on expression in E. coli; label from the status in PepcDB or PDB records
In the case of “MLQNSRIKMNPKKLYQADGHAVQELLPAMKILYQAKAEDPNTDNSPKWTQVKNKLSSKMQEVRITRQLSSQLPETGALLSELLSRQEFISQQHERAASRAVPLAEAEKVLQATVQNIAQETEQLSNKLNNVASDEAELDEKIERKKREYEQLQKRFAKLQSFRPQYMDEYERFEERLKKLYEVYVLNFRNLSYLRKVHDDLARSERQRQEELEKAMRMAVEKMRLEQEKKDAIGLHDDDGSDAPLVDRRQSVRKVYGNMMGGDASDDDEDDEDDEDDEIIRMDDNVAQHHKRELHRQEEDEERSEADYMVGITTAHVADDAKSDLSSGDDF”, the “soluble on expression in E. coli” value is reported as “not soluble”. In the case of “SDLFTDGDIFQDIVDAACKRRVPVYIILDEAGVKYFLEMCQDLQLTDFRIRNIRVRSVTGVGFYMPMGRIKGTLSSRFLMVDGDKVATGSYRFTWSSSHVDRNLLLLLTGQNVEPFDTEFRELYAISEEVDLYRQLSLAGRVGLHYSSTVARKLINPKYALVSGCRHPPGEMMRWAARQQWEAGGNPEGQEEGASGGESAWRLESFLKDLVTVEQVLPPVEPIPLGELSQKDGRMVSHMHRDLKPKSREAPSRNGMGEAARGEAAPARRFSSRLFSRRAKRPAAPNGMASSVSTETSEVEFLTGKRPNENSSADISGKTSPSSAKPSNCVIS”, the “soluble on expression in E. coli” value is reported as “soluble”. In the case of “MLISLIVPIYNVEGFLPRCLDSIIKQEYQNLEIVLVNDGSTDQSGLICDQYAEKDERFIVFHKENGGVSSARNVGLNKANGNYIGFVDPDDWIEPNMINKLYELIIQHKADIAMCGYVKEDINGLLISRPVELSTKILNKEDTLNSILNPNDFRGFLCNKLFSVDLFRKKNLYLDEDIHFCEDLLFCCQAILESKQIVYDSTPYYHYIIHNNNASKSNFSFKKLTALNSLDNIINLLNDQKGIELEQYKNYYMHLNISLLMNGIHEDKIRRQDKERLKKNLYKFKINDLTSKFVKFSCVLARLNLNLYYFIWKNAKPSN”, the “soluble on expression in E. coli” value is reported as “not soluble”. In the case of “MSLSNYSTGELAKLCNVTTRTIQYYDRKGILKPQGFTEGKRRVYTEQQRQTLELILLLKDLGCALSDIDMLLKGEGTLKTLNTLLTMKQQEINQQVKQQQAVLNKIKNVQYYVNEASTSPITHLKDIEHVMSKSAEGHHHHHH”, the “soluble on expression in E. coli” value is reported as “soluble”. With “MGSDKIHHHHHHMAALENKIDFAIAFAVNNANPNGDPLNGNRPRTTSEGLGEVSDVALKRKIRNRLQDAGESVFVQSDDRSDDGAKSLSDRFNTYLKTLPKDEQKQKNVVFGKVCERWLDVRSFGQVFAFKKAKDTDEVSIGVRGPVSIQPAFSINPIAIDDVQITKSVNSETTDSGKKSSDTMGMKYRVSGRAVYVTYGSISPQLAERTGFSAEDAEKIKEALVTLFENDESSARPSGSMEVLDVVWFAHNCKGGQYSSAKVHRSVSVDADGTVNVDDASIPGLRYEVIEGR” the “soluble on expression in E. coli” value was “not soluble”. In the case of “MGSDKIHHHHHHADTFSVLAHELMHFVYPSGTELLTPNVTKAANKCTQDEVKMMGDSDAVKPIDGWFSKKVTHEDLANIMGLRMVMKMAAKKSVNEEQLKNALETILGGLCIQGKPKNSILPHHHPFEISINTAVRQYPLFSSLYGCRPGDRMFAEAEKFCNPLGGEVNLEDYKIKNDTEDIGGFFNYIMDTANAFNFSIEN”, the “soluble on expression in E. coli” value is reported as “not soluble”. For “SASVEGDDDFGSSSSRSYQDQLYTELWKVCAGPLVEVPRAQERVFYFPQGHMEQLVASTNQGINSEEIPVFDLPPKILCRVLDVTLKAEHETDEVYAQITLQPEEDQSEPTSLDPPIVGPTKQEFHSFVKILTASDTSTHGGFSVLRKHATECLPSLDMTQATPTQELVTRDLHGFEWRFKHIFRGQPRRHLLTTGWSTFVSSKRLVAGDAFVFLRGENGDLRVGVRRLARHQSTMPTSVISSQSMHLGVLATASHAVRTTTIFVVFYKPRISQFIVGVNKYMEAIKHGFSLGTRFRMRFEGEESPERIFTGTIVGSGDLSSQWPASKWRSLQVQWDEPTTVQRPDKVSPWEIEPFLATSPISTPAQQPQSKCKRSRPIEPSVKTPAPPSFLYSLPQSQDSINASLKLFQDPSLERISGGYSSNNSFKPETPPPPTNCSYRLFGFDLTSNSPAPIPQDKQPMDTCGAAKCQEPITPTSMSEQKKQQTSRSRTKVQMQGIAVGRAVDLTLLKSYDELIDELEEMFEIQGQLLARDKWIVVFTDDEGDMMLAGDDPWNEFCKMAKKIFIYSSDEVKKMTTKLKISSSLENEEYGNESFENRSRG”, the “soluble on expression in E. coli” value was “not soluble”. For “MTPEAPYASLTEIEHLVQSVCKSYRETCQLRLEDLLRQRSNIFSREEVTGYQRKSMWEMWERCAHHLTEAIQYVVEFAKRLSGFMELCQNDQIVLLKAGAMEVVLVRMCRAYNADNRTVFFEGKYGGMELFRALGCSELISSIFDFSHSLSALHFSEDEIALYTALVLINAHRPGLQEKRKVEQLQYNLELAFHHHLCKTHRQSILAKLPPKGKLRSLCSQHVERLQIFQHLHPIVVQAAFPPLYKELFST”, the “soluble on expression in E. coli” value was “soluble”. For “MGSDKIHHHHHHMRNLGNTNMKIKRVGFGGIPIQRITQDDTNLVINELEKQGINFIDSARGYTISEEAIGIAIEGKRDKFFLATKSMSRDYDSMKRDVEISLNNFKTDFIDLYQFHNVKEEEYDNLFKDKMAYSALLEAKEQGKIKHIGITSHNLNTIEKAIEDGKFDTIQFPYNIVEGQADEVFKKAHEKGIGIIVMKPLAGGALDNATLAIKYILSKDYIDVVIPGMESVEQVRQNVAVLENLVLDEKDNKEIEEIRNSLGKKFCRRCEYCMPCAVGINIPLSFLCEGYYTRYGLKEWAKEKYEVMDVKPTECIDCGLCESRCPYELPIREMLKTVVEKLG”, the “soluble on expression in E. coli” value was “not soluble”. With “MSQIEFKNVSKVYPNGHVGLKNINLNIEKGEFAVIVGLSGAGKSTLLRSVNRLHDITSGEIFIQGKSITKAHGKALLEMRRNIGMIFQHFNLVKRSSVLRNVLSGRVGYHPTWKMVLGLFPKEDKIKAMDALERVNILDKYNQRSDELSGGQQQRISIARALCQESEIILADEPVASLDPLTTKQVMDDLRKINQELGITILINLHFVDLAKEYGTRIIGLRDGEVVYDGPASEATDDVFSEIYGRTIKEDEKLGVN” the “soluble on expression in E. coli” value was “not soluble”. For “VKLLTDLFKAGLRTPSTDQIQKISMELSFYGKIESKNVFYWFQNHKARERQKCRKISTVKFDHRQDTDLSKPRRDNVRRHQLPAKG”, the “soluble on expression in E. coli” value was “not soluble”. With “MLQSLKDVAKQAPVHRKLDIQEWKTAEGAKVLFVEAHELPMFDLRLTFAAGSSQDAGTPGLSMLTNAMLNEGVPGKDTTAIAAGFEDLGASFSNGSYRDMAVAGLRSLSEADKRTQALKLFEQVIGQPTFPEDALARIKNQVLAGFEYQKQNPGKLAGLELFKRLYGEHPYAHSSDGDEKSVPTISREQLQAFHKKAYAAGNVVIALVGDLSRQEAEAIAAEVSKALPQGPALAKTLEHHHHHH” the “soluble on expression in E. coli” value was “soluble”. For “MCEATYGGASPQIRRQRFVILGMSDDPHPFFPPAAMTAIASGKIFSGGKRHHEIVRGLLPADAEWIDITVPLDDVFARYREYEEIVVFASGDPLFFGFANTVMNRLPDAVVTVYPTFNSLQMLAHALRMPYHDMRIVSLTGRPWHEFDRALIERAEKIGILTDHEHTPSAIAMRMLDYGYEDYTMSVGTRMGNPQEQCLDTFSLREAADRDFERPNCVILSATRPFVCSRAPLGLSESAFMPLNGRTKMITKMPFRLVSLSCLELHRASSFWDIGFCTGSVSIEAKLNFPHLHITAFEIRPEGAELMPVNSRRFGAPGIAYRIGDFMEEDISSLAPPDAVFIGGHGGRLVEMIAKVHSVMTKGGLLVFNSVSEESRHLFLTGIEACGMELLSSIRLTADGNNPIDILQARKKE”, the “soluble on expression in E. coli” value was “not soluble”. In the case of “MSLSSAQQWSYVRQLQREIRRSDVLDLPLEKLPVVVFDLETSGFYPDQGDRILSIGAVKVVGLTIQEEETFYSVVHTDTVPPENILELTGLSVEELEAAPPLTSVLESFYAFIRHSTLVAHHASHEKAFMSHVTWQTMKLPFEHRVIDTSFLTKIVAPQELVTLDDCCAYYSIPVQNRHHAFEDSLMTAKLWIAAIAAAREAGEGHHHHHH”, the “soluble on expression in E. coli” value is reported as “not soluble”. For “MSTTGRIHSFESCGTVDGPGIRFIVFLQGCLMRCKYCHNRDTWDTHDGKEVTVEEIIAEAKSYRHFMNASGGGITCSGGEAMLQPEFVRDFFRAAHAEGIHTCLDTNGYIRKHTEVIDEVLDATDLVMLDIKHMKDEIHQDFIGVSNRRTLDFARYLHKIGQKTWIRYVVVPGYTDDPEAAHMLGEFIKDMDNIEKVELLPYHKLGAHKWEALGLEYPLEGVNPPSKETMDEIQSILSQYHSNVKYLEHHHHHH”, the “soluble on expression in E. coli” value was “not soluble”. With “MLQPTPTLTDQVAGQLARAIADGAYAVGAKLPTGRALAQQYGVSAAVIREATERLRAQGLVQSRQGSGCTVVARMPAGGFQVPAGGLDRAHLARVYELRMELEGGAAALAARRRGAADLDRMRQALQALQREPIEPEQGVVHDVGFHVAIATATANPYYLQLLQYLNLQLRQAVETARANTRRQGDPVHAVHEEHLAIYRAIERGEPEAARAAAQHHLLGAAARLQLDMNL” the “soluble on expression in E. coli” value was “not soluble”. With “MSSEWDNKIIPVIGVPLEARKLPSARIPKKPKETDGNSTETVVNSTEKPEERKEKPPKPPKQKQKQKQNLNNKFLKNLITDTGKPASMNGLFVAEEEAKLTLLEKKAMKIHIEENTLSDPQFPTYTTKHQGRIKFKCRLLWLLNKETFMKRANKPHLANIVVKQAHMEAVPPKQNVNQKKQMKNQEKNKNAKPLMDIKFDEKARSFKQRTGEDYNGGFDISSNYQGSEGSGGYQHIGNTWPNTESQWNYDPSTNGYSTFLASTPDTSTTYQPYQPSEYANFSRQLESSSSSVPVYGGATDPTQTSTSSVISFGVAVHEPISESSASAYDDPTRNHWNPQSATSDYSTVPTSGTSNVFPSYQTSEYSSFPNQTPSSSSSYQQSSQYTPMVPDLINQAINGYTTPQYNQPNQQVNQDFNTNQFSASLASLHSQPLEASEDELLRQKRLMEIEQELHMINAKKMHMQMEAEIRHREMELAKRQQLMELRERELRDRECFENGRTHAGHTGQHNYDNREYSSHHESKNPSVGGNYSSTSRSISINEDPAASHYYGQRVERKKRLGGELARRQGRVYEEVSSPGPLKRSADQSRAGSIQPAEGPSRKQRRRNNKNVQVTVNMEDISDDEEV” the “soluble on expression in E. coli” value was “not soluble”. In the case of “VPTDCTENWVVVYLSGPLFFMSSERLKQTLLQLETKSGVVFSMRGVPSIDSTALDILEEFCLAAEGRGQQVQFAALQPEVEKMIRTIQGNQEKEYHFSVAEFLQTVHVA”, the “soluble on expression in E. coli” value is reported as “not soluble”. With “MGHHHHHHSHMGKITFYEDRAFQGRSYETTTDCPNLQPYFSRCNSIRVESGCWMLYERPNYQGQQYLLRRGEYPDYQQWMGLSDSIRSCCLIPQTVSHRLRLYEREDHKGLMMELSEDCPSIQDRFHLSEIRSLHVLEGCWVLYELPNYRGRQYLLRPQEYRRCQDWGAMDAKAGSLRRVVDLY” the “soluble on expression in E. coli” value was “soluble”. For “MTDNDAVSAAFAHMRQEAKKRTGTVPNLNRPLPKASKSLADNDATPAVPKQRGMATGPDGRRRRRSYSVQRAGSILSDEIKKRGWRKEIAGGWVNSHWDDLVGAQIAAHTKVEMFKDKALFITCDSTAWATNLRMMQRIILRSISEQIGPDIIVELKIFGPKAPSWRHGPLHVKGRGPRDTYG”, the “soluble on expression in E. coli” value was “not soluble”. For “MTSMHTSVNGCKFCDIVKNKKELQLKENKSCVVINDIKPKAKNHYLVLSKQHIAKPTDLTVADVPLLEEMEKTGRELLREHLKKKGEADTVEDMLRIGFHLPPLLSVHHLHMHIIYPISDMGLISRKLTFRPGKVFKPARELIDQLKEDAGVPDPLEGNPAKDDVHEKIPAQVIS”, the “soluble on expression in E. coli” value was “not soluble”. In the case of “MSLTYQFMQPYTFKNGVTLKNRMVMSPTTTMSSFYDGHVTNDEIKFYDVRAGGPGMIIGEVANVIASGKGFEGELSIADDGDIDGLSRLANAMKRGGTKAILQIFHAGRKSNDSILRGEQPVSASAVKAVFPPDSQTPRELTAAEIDEIIVAFGEATRRAIAAGFDGVELHGANTYLLQQFFSPNSNRRTDKWGGDRDARMGFAKAVIASSQQAIDTYADRPFLLGYRISPEEIETPGIRLADSLAFVDMLGDSTVDYVHTSMGSAHRTSLNDKTDHEPILKQLVQQLAGRKPLIGVGSVEKPADAEAVLEMGADLVAMGREFIREPQWVEKIVDGDEASIRYQISPSELDELAIPRAMQDYLKGAFYSVMHFTTDPSVAVDYQNEGHHHHHH”, the “soluble on expression in E. coli” value is reported as “soluble”.
